According to patent publication US20170306038A1, “COMPOSITIONS AND METHODS OF USE FOR AUGMENTED IMMUNE RESPONSE AND CANCER THERAPY” (priority 2014, published 2017):

T1: human GITR (Homo sapiens, UniProt Q9Y5U5)
T1 construct: coated with rat, mouse, human or cyno GITR extracellular domain (ECD) at 50 ng per well
T1 sequence (Q9Y5U5 26-162 limits assumed): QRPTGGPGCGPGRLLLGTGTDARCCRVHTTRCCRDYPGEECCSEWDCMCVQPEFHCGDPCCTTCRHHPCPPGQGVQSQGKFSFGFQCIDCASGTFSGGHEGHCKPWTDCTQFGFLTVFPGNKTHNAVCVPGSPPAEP

T2: human GITR (Homo sapiens, UniProt Q9Y5U5)
T2 construct: expressed in transfected cells; host or cells: HEK-293 (293) cells
T2 sequence (Q9Y5U5 26-241): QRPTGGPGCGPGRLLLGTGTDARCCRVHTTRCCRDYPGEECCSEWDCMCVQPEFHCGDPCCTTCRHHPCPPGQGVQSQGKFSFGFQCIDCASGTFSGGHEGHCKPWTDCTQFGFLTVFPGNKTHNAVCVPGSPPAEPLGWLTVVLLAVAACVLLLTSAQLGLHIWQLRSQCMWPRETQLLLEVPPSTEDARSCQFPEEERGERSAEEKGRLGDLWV

B1: MAB1: murine monoclonal GITR agonist antibody (parental); VH SEQ ID NO:61, VL SEQ ID NO:59 (antibody, V domains shown)
VH: QVQLKESGPGLVAPSQSLSITCTVSGFSLRSYGVDWVRQPPGKGLEWLGVIWGGGGTNYNSALMAKLSISKDKSKSQVFLKMNSLQTDDTAMYYCAKHAYGHDGGFAMDYWGQGTSVTVSS
VL: NIVMTQSPKSMSMSVGERVTLSCKASENVDTFVSWYQQKPDHSPKLLIYGASNRYTGVPDRFTGSGSATDFTLTISSVQAEDLADYHCGQSYSYPFTFGSGTKLEIK
B2: GITRL: recombinant human GITR ligand (GITR-L) (protein)
chain: ETAKEPCMAKFGPLPSKWQMASSEPPCVNKVSDWKLEILQNGLYLIYGQVAPNANYNDVAPFEVRLYKNKDMIQTLTNKSKIQNVGGTYELHVGDTIDLIFNSEHQVLKNNTYWGIILLANPQFIS

Columns and labels:
human GITR [1] = target: T1, human GITR; test: ELISA binding to GITR extracellular domain, human
Procedure: (§1) Binding of the MABs to GITR from various species, various alanine mutant constructs or GITR extracellular domain—was assessed using a 384-well plate was coated with rat, mouse, human or cyno GITR extracellular domain (ECD) at 50 ng per well and incubated overnight at 4° C. The plate was blocked with a solution of 1% BSA in PBS for one hour at room temperature and then rinsed three times with PBST. The MAB was then diluted to 0.5 μg/mL or 1 μg/mL in PBS and 20 μL was added to each well. The plate was incubated for 1 hour at room temperature and then washed three times with PBST. Anti-human kappa antibody (Sigma #A7164), anti-human gamma antibody (Jackson Immunoresearch 109-036-098), goat anti-mouse antibody (Jackson ImmunoResearch 115-035-071) conjugated to HRP was diluted 1:5000 in Blocking Buffer (25 μL) and added to each well, or a hrp conjugated HIS antibody (QIAGEN 1014992) diluted 1:1000 in Blocking Buffer was added. The plate was incubated for 1 hour at room temperature, and then washed six times with PBST. 25 μL of SureBlue TMB (KPL 52-00-02) substrate was added to each well and the plate was incubated for about 10 min at room temperature. Plates were read at 650 nm in a spectrophotometer.

cynomolgus GITR = test: ELISA binding to GITR extracellular domain, cyno
Procedure: as §1

rodent GITR = test: ELISA binding to GITR extracellular domain, rodent; set-up: species or system rat, mouse
Procedure: as §1

human GITR [2] = target: T2, human GITR; test: NFκB-Luciferase reporter gene assay, 293 cells with human GITR; assay type: cell-based; details: antibodies crosslinked
Procedure: To generate the 293-hGITR-NFκB reporter gene cells line, 293 cells were stably transfected with an NFκB-Luciferase reporter gene and human GITR (or cyno GITR). Activation of the GITR signaling pathway in these cells was determined by measuring the levels of luciferase induced within the cells after a 24 hour incubation with GITR-L or agonistic antibody. To assess the effects of cross-linking Abs, they were incubated with an excess of a F(ab′)2 goat anti-human Fcγ fragment specific antibody or protein A before using in the reporter gene assay.
Functional activity of MABs were tested in an NFkB reporter gene assay for agonist activity. MAB was diluted to 6 μg/mL in PBS and incubated for 30 minutes at room temperature in the presence/absence of a 3 fold excess of F(ab′)2 fragment goat anti-human Fcγ specific crosslinker. Alternatively, MAB was diluted to 6 μg/mL in PBS and incubated for 30 minutes at room temperature in the presence/absence of a 2 fold excess of Protein A. 10 μL of incubated MAB was then added to a 384 well white clear bottomed assay plate. A HEK-293 cell line stably transfected with hGITR and a NFκB reporter gene was diluted to 5×10^5 cells/mL and 20 μL of the cell suspension was added to each well. […] 30 μL of Cell Bright Glo was added to each well and the plate was read for luminescence on the Acquest.

Molecule	binding to human GITR in ELISA (human GITR [1])	binding to cynomolgus GITR in ELISA (cynomolgus GITR)	binding to rodent GITR in ELISA (rodent GITR)	NFκB activity / intracellular signaling (human GITR [2])
B1	binds	binds	not rodent GITR	–
B2	–	–	–	activates intracellular signaling
